The target of experiment [1] is TRPML3 (not stated (human or mouse cDNA cloned)) (UniProt Q8R4F0). Put plainly: FRET or BRET; acceptor photobleaching FRET in transiently transfected HEK293 cells; C-terminal CFP and YFP fusions; FRET efficiency from the recovery of CFP fluorescence during YFP photobleaching. On the technique in general: Bioluminescence resonance energy transfer reports proximity on the nanometre scale.

Another experiment deals with T1, TRPML3 ( (human or mouse cDNA cloned), UniProt Q8R4F0 1-553).
T1 construct: TRPML3 cation channel; pcDNA3.1 plasmids held full-length mouse TRPML3 (NM_134160) and human TRPML3 (NM_018298); 'full-length' is printed for the mouse cDNA; Stood as CFP fusion and as YFP fusion in the FRET pairs; also called mucolipin 3; source: HEK293, transiently transfected, in cells; not shown: YFP or CFP, C-terminal, kept
T1 sequence (looked up): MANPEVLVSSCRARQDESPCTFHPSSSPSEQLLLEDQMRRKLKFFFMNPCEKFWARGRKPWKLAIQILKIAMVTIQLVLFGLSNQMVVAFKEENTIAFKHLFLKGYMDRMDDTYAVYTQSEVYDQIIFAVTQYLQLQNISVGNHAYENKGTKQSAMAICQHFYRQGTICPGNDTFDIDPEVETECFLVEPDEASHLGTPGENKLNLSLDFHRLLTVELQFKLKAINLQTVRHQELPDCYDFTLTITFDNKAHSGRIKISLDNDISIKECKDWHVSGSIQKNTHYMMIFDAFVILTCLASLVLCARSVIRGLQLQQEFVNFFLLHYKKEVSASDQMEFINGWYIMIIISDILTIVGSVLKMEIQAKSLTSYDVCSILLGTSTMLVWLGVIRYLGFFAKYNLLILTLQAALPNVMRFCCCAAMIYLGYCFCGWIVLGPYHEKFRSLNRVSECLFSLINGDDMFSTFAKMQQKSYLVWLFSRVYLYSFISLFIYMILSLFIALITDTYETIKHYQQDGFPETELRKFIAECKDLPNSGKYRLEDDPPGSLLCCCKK
Described as above. The settings on record: partners not purified.

Experiment [2] addresses TRPV5 (mouse) (UniProt P69744).
Experiment [3] addresses TRPV5 (mouse) (UniProt P69744). The source holds these as a separate data set.

The text below walks through data of PMC3585263, “A Novel Ion Channel Formed by Interaction of TRPML3 with TRPV5” (PLoS ONE, 2013).

Chain of TRPV5 (mouse) (P69744 whole entry): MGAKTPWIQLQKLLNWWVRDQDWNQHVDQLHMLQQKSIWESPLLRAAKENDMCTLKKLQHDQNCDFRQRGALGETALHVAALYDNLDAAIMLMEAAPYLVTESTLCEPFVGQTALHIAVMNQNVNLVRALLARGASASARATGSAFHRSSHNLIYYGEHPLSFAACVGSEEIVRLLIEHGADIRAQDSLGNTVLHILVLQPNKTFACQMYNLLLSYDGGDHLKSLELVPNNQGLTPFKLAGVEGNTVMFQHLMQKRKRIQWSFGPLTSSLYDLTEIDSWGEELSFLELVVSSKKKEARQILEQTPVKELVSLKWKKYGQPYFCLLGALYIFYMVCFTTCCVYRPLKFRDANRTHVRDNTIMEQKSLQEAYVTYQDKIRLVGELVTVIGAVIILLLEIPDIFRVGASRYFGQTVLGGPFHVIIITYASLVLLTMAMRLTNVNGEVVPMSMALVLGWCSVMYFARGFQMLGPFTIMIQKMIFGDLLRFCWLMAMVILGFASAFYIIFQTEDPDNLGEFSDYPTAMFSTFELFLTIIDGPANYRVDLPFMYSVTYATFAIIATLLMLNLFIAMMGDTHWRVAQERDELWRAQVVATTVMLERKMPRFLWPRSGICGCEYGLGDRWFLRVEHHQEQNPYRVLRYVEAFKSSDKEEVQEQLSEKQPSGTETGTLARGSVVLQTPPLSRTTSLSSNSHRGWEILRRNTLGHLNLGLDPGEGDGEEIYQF

As to YFP alone, in experiment [1], the FRET efficiency was below 5%.

B1: TRPA1 (natural protein, UniProt O75762 1-1119, looked up)
chain: MKRSLRKMWRPGEKKEPQGVVYEDVPDDTEDFKESLKVVFEGSAYGLQNFNKQKKLKRCDDMDTFFLHYAAAEGQIELMEKITRDSSLEVLHEMDDYGNTPLHCAVEKNQIESVKFLLSRGANPNLRNFNMMAPLHIAVQGMNNEVMKVLLEHRTIDVNLEGENGNTAVIIACTTNNSEALQILLKKGAKPCKSNKWGCFPIHQAAFSGSKECMEIILRFGEEHGYSRQLHINFMNNGKATPLHLAVQNGDLEMIKMCLDNGAQIDPVEKGRCTAIHFAATQGATEIVKLMISSYSGSVDIVNTTDGCHETMLHRASLFDHHELADYLISVGADINKIDSEGRSPLILATASASWNIVNLLLSKGAQVDIKDNFGRNFLHLTVQQPYGLKNLRPEFMQMQQIKELVMDEDNDGCTPLHYACRQGGPGSVNNLLGFNVSIHSKSKDKKSPLHFAASYGRINTCQRLLQDISDTRLLNEGDLHGMTPLHLAAKNGHDKVVQLLLKKGALFLSDHNGWTALHHASMGGYTQTMKVILDTNLKCTDRLDEDGNTALHFAAREGHAKAVALLLSHNADIVLNKQQASFLHLALHNKRKEVVLTIIRSKRWDECLKIFSHNSPGNKCPITEMIEYLPECMKVLLDFCMLHSTEDKSCRDYYIEYNFKYLQCPLEFTKKTPTQDVIYEPLTALNAMVQNNRIELLNHPVCKEYLLMKWLAYGFRAHMMNLGSYCLGLIPMTILVVNIKPGMAFNSTGIINETSDHSEILDTTNSYLIKTCMILVFLSSIFGYCKEAGQIFQQKRNYFMDISNVLEWIIYTTGIIFVLPLFVEIPAHLQWQCGAIAVYFYWMNFLLYLQRFENCGIFIVMLEVILKTLLRSTVVFIFLLLAFGLSFYILLNLQDPFSSPLLSIIQTFSMMLGDINYRESFLEPYLRNELAHPVLSFAQLVSFTIFVPIVLMNLLIGLAVGDIAEVQKHASLKRIAMQVELHTSLEKKLPLWFLRKVDQKSTIVYPNKPRSGGMLFHIFCFLFCTGEIRQEIPNADKSLEMEILKQKYRLKDLTFLLEKQHELIKLIIQKMEIISETEDDDSHCSFQDRFKKEQMEQRNSRWNTVLRAVKAKTHHLEP
notes: TRPA1 cation channel; construct and species not described; source: HEK293, transiently transfected, in cells; not shown: YFP or CFP, C-terminal, kept
In the experiment with TRPML3, B1 yielded an FRET efficiency below 5%.

B2: TRPC6 (natural protein, UniProt Q9Y210 1-931, looked up)
chain: MSQSPAFGPRRGSSPRGAAGAAARRNESQDYLLMDSELGEDGCPQAPLPCYGYYPCFRGSDNRLAHRRQTVLREKGRRLANRGPAYMFSDRSTSLSIEEERFLDAAEYGNIPVVRKMLEECHSLNVNCVDYMGQNALQLAVANEHLEITELLLKKENLSRVGDALLLAISKGYVRIVEAILSHPAFAEGKRLATSPSQSELQQDDFYAYDEDGTRFSHDVTPIILAAHCQEYEIVHTLLRKGARIERPHDYFCKCNDCNQKQKHDSFSHSRSRINAYKGLASPAYLSLSSEDPVMTALELSNELAVLANIEKEFKNDYKKLSMQCKDFVVGLLDLCRNTEEVEAILNGDVETLQSGDHGRPNLSRLKLAIKYEVKKFVAHPNCQQQLLSIWYENLSGLRQQTMAVKFLVVLAVAIGLPFLALIYWFAPCSKMGKIMRGPFMKFVAHAASFTIFLGLLVMNAADRFEGTKLLPNETSTDNAKQLFRMKTSCFSWMEMLIISWVIGMIWAECKEIWTQGPKEYLFELWNMLDFGMLAIFAASFIARFMAFWHASKAQSIIDANDTLKDLTKVTLGDNVKYYNLARIKWDPSDPQIISEGLYAIAVVLSFSRIAYILPANESFGPLQISLGRTVKDIFKFMVIFIMVFVAFMIGMFNLYSYYIGAKQNEAFTTVEESFKTLFWAIFGLSEVKSVVINYNHKFIENIGYVLYGVYNVTMVIVLLNMLIAMINSSFQEIEDDADVEWKFARAKLWFSYFEEGRTLPVPFNLVPSPKSLFYLLLKLKKWISELFQGHKKGFQEDAEMNKINEEKKLGILGSHEDLSKLSLDKKQVGHNKQPSIRSSEDFHLNSFNNPPRQYQKIMKRLIKRYVLQAQIDKESDEVNEGELKEIKQDISSLRYELLEEKSQNTEDLAELIRELGEKLSMEPNQEETNR
notes: TRPC6 cation channel; construct and species not described; source: HEK293, transiently transfected, in cells; not shown: YFP or CFP, C-terminal, kept
For B2, the FRET efficiency in the experiment with TRPML3 is below 5%.

B3: TRPML3 (natural protein)
chain: T1 sequence (looked up)
In the experiment with TRPV5 (mouse) [2], B3 yielded an average open time, single channels of cotransfected HEK293 cells, first type of current, condition 1 of 0.4 ms; an average open time, single channels of cotransfected HEK293 cells, second type of current, condition 1 of 0.16 ms; an average open time, single channels of cotransfected HEK293 cells, second type of current, condition 2 of 0.17 ms; a mean open time, single channels of cotransfected HEK293 cells, first type of current, condition 2 of 5.98 ms. Moreover, in the experiment with TRPV5 (mouse) [2], the single channel conductance at −150 mV, outside-out patches of cotransfected HEK293 cells, first type of current, condition 1 was 32.3 pS; the single channel conductance, cotransfected HEK293 cells, first type of current, condition 2 was determined as 33.4 pS; the single channel conductance, cotransfected HEK293 cells, second type of current, condition 1 came to 34.6 pS; the single channel conductance, cotransfected HEK293 cells, second type of current, condition 2 came to 46.7 pS. The same molecule gave a whole-cell current density of the novel current at −150 mV in standard bath solution (condition 1), HEK293 cells cotransfected with TRPV5 and TRPML3 with TRPV5 (mouse) [3] of -0.129 nA/pF.

B4: TRPV2 (natural protein, UniProt Q9Y5S1 1-764, looked up)
chain: MTSPSSSPVFRLETLDGGQEDGSEADRGKLDFGSGLPPMESQFQGEDRKFAPQIRVNLNYRKGTGASQPDPNRFDRDRLFNAVSRGVPEDLAGLPEYLSKTSKYLTDSEYTEGSTGKTCLMKAVLNLKDGVNACILPLLQIDRDSGNPQPLVNAQCTDDYYRGHSALHIAIEKRSLQCVKLLVENGANVHARACGRFFQKGQGTCFYFGELPLSLAACTKQWDVVSYLLENPHQPASLQATDSQGNTVLHALVMISDNSAENIALVTSMYDGLLQAGARLCPTVQLEDIRNLQDLTPLKLAAKEGKIEIFRHILQREFSGLSHLSRKFTEWCYGPVRVSLYDLASVDSCEENSVLEIIAFHCKSPHRHRMVVLEPLNKLLQAKWDLLIPKFFLNFLCNLIYMFIFTAVAYHQPTLKKQAAPHLKAEVGNSMLLTGHILILLGGIYLLVGQLWYFWRRHVFIWISFIDSYFEILFLFQALLTVVSQVLCFLAIEWYLPLLVSALVLGWLNLLYYTRGFQHTGIYSVMIQKVILRDLLRFLLIYLVFLFGFAVALVSLSQEAWRPEAPTGPNATESVQPMEGQEDEGNGAQYRGILEASLELFKFTIGMGELAFQEQLHFRGMVLLLLLAYVLLTYILLLNMLIALMSETVNSVATDSWSIWKLQKAISVLEMENGYWWCRKKQRAGVMLTVGTKPDGSPDERWCFRVEEVNWASWEQTLPTLCEDPSGAGVPRTLENPVLASPPKEDEDGASEENYVPVQLLQSN
notes: TRPV2 cation channel; construct and species not described; source: HEK293, transiently transfected, in cells; not shown: YFP or CFP, C-terminal, kept
As for B4, the FRET efficiency with TRPML3 is below 5%.

B5: PKD2 (natural protein, UniProt Q13563 1-968, looked up)
chain: MVNSSRVQPQQPGDAKRPPAPRAPDPGRLMAGCAAVGASLAAPGGLCEQRGLEIEMQRIRQAAARDPPAGAAASPSPPLSSCSRQAWSRDNPGFEAEEEEEEVEGEEGGMVVEMDVEWRPGSRRSAASSAVSSVGARSRGLGGYHGAGHPSGRRRRREDQGPPCPSPVGGGDPLHRHLPLEGQPPRVAWAERLVRGLRGLWGTRLMEESSTNREKYLKSVLRELVTYLLFLIVLCILTYGMMSSNVYYYTRMMSQLFLDTPVSKTEKTNFKTLSSMEDFWKFTEGSLLDGLYWKMQPSNQTEADNRSFIFYENLLLGVPRIRQLRVRNGSCSIPQDLRDEIKECYDVYSVSSEDRAPFGPRNGTAWIYTSEKDLNGSSHWGIIATYSGAGYYLDLSRTREETAAQVASLKKNVWLDRGTRATFIDFSVYNANINLFCVVRLLVEFPATGGVIPSWQFQPLKLIRYVTTFDFFLAACEIIFCFFIFYYVVEEILEIRIHKLHYFRSFWNCLDVVIVVLSVVAIGINIYRTSNVEVLLQFLEDQNTFPNFEHLAYWQIQFNNIAAVTVFFVWIKLFKFINFNRTMSQLSTTMSRCAKDLFGFAIMFFIIFLAYAQLAYLVFGTQVDDFSTFQECIFTQFRIILGDINFAEIEEANRVLGPIYFTTFVFFMFFILLNMFLAIINDTYSEVKSDLAQQKAEMELSDLIRKGYHKALVKLKLKKNTVDDISESLRQGGGKLNFDELRQDLKGKGHTDAEIEAIFTKYDQDGDQELTEHEHQQMRDDLEKEREDLDLDHSSLPRPMSSRSFPRSLDDSEEDDDEDSGHSSRRRGSISSGVSYEEFQVLVRRVDRMEHSIGSIVSKIDAVIVKLEIMERAKLKRREVLGRLLDGVAEDERLGRDSEIHREQMERLVREELERWESDDAASQISHGLGTPVGLNGQPRPRSSRPSSSQSTEGMEGAGGNGSSNVHV
notes: PKD2 (TRPP2) cation channel; construct and species not described; also called TRPP2; source: HEK293, transiently transfected, in cells; not shown: YFP or CFP, C-terminal, kept
Molecule B5 gave an FRET efficiency in the experiment with TRPML3 below 5%.
